Experimental data taken from the nanobody polyreactivity screen of Harvey et al. (2022).

Experiment: yeast display, Sf9 membrane polyspecificity reagent, FACS + sequencing; frameworks hold sequencing errors
How it was run: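 After 36–48 hours of galactose induction, yeast (Saccharomyces cerevisiae BJ5465) displaying a synthetic nanobody library were stained at 4 °C for 1 hour with 10% biotinylated, detergent-solubilized Sf9 membrane reagent. Streptavidin microbeads enriched the stained cells before FACS sorting into low and high (top ~1%) gates on anti-HA and streptavidin fluorescence. Each clone's polyreactivity label reflects its gate of origin.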

Row | Sequence | polyreactivity (PSR sort gate)
1 | QVQLVESGGGLVQAGGSLRLSCAASGNTFPGYAMGWYRQAPGKEREFVATITSNDGTTYYADSVKGRFTISRDNAKNTVYLQMNSLKPEDTAVYYSAKRLSDSWPPNWGYNYWGQGTQVTVTS | low polyreactivity
2 | QVQLVESGGGLVQAGGSLRLSCAASGNTFPVNAMGWYRQAPGKERDLVAAISRTGASTYYADSVKGRITISRDNAKNTVYLQMNSLKPEDTAVYYCAKYLKTPHNRRRVEALGYWGQGTQVTVSS | high polyreactivity
3 | QVQLVESGGGLVQAGGSLRLSCAASGNTFQYYAMGWYRQAPGKEREFVAAISRRGGSTYYADSVKGRFTISRDNAKNTVYLQMNSLKPEDTAVYYCNKVIFLSQSSYSFHYAYDYWGQGTQVTVSS | high polyreactivity
4 | QVQLVESGGGLVQAGGSLRLSCAASGNTFRFYTMGWYRQAPGKERELVAAINSSGRTNYADSVKGRFTISRDNAKNTVYLQMNSLKPEDTAVYYCAATVWVYRRSRDYWGQGTQVTVSS | low polyreactivity
5 | QVQLVESGGGLVQAGGSLRLSCAASGNTFRIYAMGWYRQAPGKERELVAAISQSGGSTYYADSVKVRFTISRDNAKYTVYLQMNSLKPEDTAVYYCQLIRRGHDYWGQGTQVTVSS | high polyreactivity
6 | QVQLVESGGGLVQAGGSLRLSCAASGNTFRRNVMGWYRQAPGKERELVAAINRGGSTTYADSVKGRFTISRDNAKNTVFLQMNSLKPEDTAVYYCNAEKRGQSYRFDYWGQGTQVTVSS | high polyreactivity
7 | QVQLVESGGGLVQAGGSLRLSCAASGNTFRRYAMGWYRQAPGKEREFVAAISSSGGRTYYADSVKGRFTISRDNAKNTVYLQMNSLKPEDTAVYYCNAVSYWVRGEMDYWGQGTQVTVSS | high polyreactivity
8 | QVQLVESGGGLVQAGGSLRLSCAASGNTFRWYVMGWYRQAPGKERELVAAITSSGSTTYYADSVKGRFSISRDNAKNTVYLQMNSLKPEDTAVYYCAARNYGPYDYWGQGTQVTVSS | low polyreactivity
9 | QVQLVESGGGLVQAGGSLRLSCAASGNTFRYYAMGWYRQAPGKERELLAAINSRGGTTSYADSVKGRFTISRDNAKNTVYLQMNSLKPEDTAVYYCNKYIRYPFKRYGYWGQGTQVTVSS | high polyreactivity
10 | QVQLVESGGGLVQAGGSLRLSCAASGNTFSISAMGWYRLAPGKERELVAAISLSGGSTYYADSVKGRFTISRDNAKNTVYLQMNSLKPEDTAVYYCAADVFTARRRYDYWGQGTQLTVSS | low polyreactivity
11 | QVQLVESGGGLVQAGGSLRLSCAASGNTFSWYAMGWYRQAPGKERELVAVITSGGSTNYADSVKGRFTISRDNAKNTVYLQMNSLKPEDTAVYYCNKGLSRSYWWVDYWGQGTQVTVSS | low polyreactivity
12 | QVQLVESGGGLVQAGGSLRLSCAASGNTFSYYAMGRYRQSPGKEREFVAAIRKSGASTYYADTVKGRFTISRDNAKNTVYLQINSLKPEDTALYYCAADGQVSYALGFDYWGQGTQVTVSS | high polyreactivity
13 | QVQLVESGGGLVQAGGSLRLSCAASGNTFTRNAMGWYRQAPGKERELVAAITGRGGTYYADSVKGRFTISRDNAKNTVYLQMNSLKPEDTAVYYCAAASVTRRDLDYWGQGTQVTVSS | high polyreactivity
14 | QVQLVESGGGLVQAGGSLRLSCAASGNTFTYYAMGWYRQAPGKERELVAAINIDVASTYYADSVKGRFTISRDNAKNTVYLQMNSLKPEDTAVYYCAAEVGVYPVYWYDYWGQGTQVTVSS | low polyreactivity
15 | QVQLVESGGGLVQAGGSLRLSCAASGNTFVANDMGWYRQAPGKERELVAVISGSGGDTYYADSVKGRFTISRDNAKNTVYLQMNSLKPEDTAVYYFAADWYGRETDRSDSDYEYWGQGTKVTVSS | low polyreactivity
16 | QVQLVESGGGLVQAGGSLRLSCAASGNTFVINTMGWYRQAPGKERELVAGISRRGTSTYYEDSVKGRFTISRDNAKNSVYLQMNSLKPEDTEVYYCAVYSEIVRYEYWGQGTQVTVSS | high polyreactivity
17 | QVQLVESGGGLVQAGGSLRLSCAASGNTFVLYAMGWYRQAPGKERELVAAINNGGSTYADSVKGRFTISRDNAKNTVYLQMNSLKPEDTAVYYCAARYQVGVYWRRYYWGQGTQVTVSS | high polyreactivity
